Target: human complement C3b (human) (UniProt P01024)
Sequence of UniProt P01024 (P01024 23-667, chain 1 of 2): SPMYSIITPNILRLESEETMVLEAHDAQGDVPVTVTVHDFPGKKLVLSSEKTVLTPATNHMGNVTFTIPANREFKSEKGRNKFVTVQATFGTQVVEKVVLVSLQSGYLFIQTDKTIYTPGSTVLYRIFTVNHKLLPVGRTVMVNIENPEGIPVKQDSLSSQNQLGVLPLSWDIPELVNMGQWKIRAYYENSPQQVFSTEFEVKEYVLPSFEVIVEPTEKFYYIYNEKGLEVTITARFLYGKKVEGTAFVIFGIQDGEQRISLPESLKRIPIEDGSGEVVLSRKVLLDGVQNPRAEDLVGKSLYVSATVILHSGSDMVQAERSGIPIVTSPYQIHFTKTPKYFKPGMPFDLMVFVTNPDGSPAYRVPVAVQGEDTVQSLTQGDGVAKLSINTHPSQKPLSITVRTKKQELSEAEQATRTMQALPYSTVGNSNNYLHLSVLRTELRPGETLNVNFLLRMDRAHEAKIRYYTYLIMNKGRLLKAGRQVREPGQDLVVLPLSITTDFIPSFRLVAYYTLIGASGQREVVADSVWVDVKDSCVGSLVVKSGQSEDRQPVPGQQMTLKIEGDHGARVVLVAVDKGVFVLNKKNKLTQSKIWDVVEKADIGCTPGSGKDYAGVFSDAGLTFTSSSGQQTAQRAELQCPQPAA
Sequence of UniProt P01024 (P01024 749-1663, chain 2 of 2): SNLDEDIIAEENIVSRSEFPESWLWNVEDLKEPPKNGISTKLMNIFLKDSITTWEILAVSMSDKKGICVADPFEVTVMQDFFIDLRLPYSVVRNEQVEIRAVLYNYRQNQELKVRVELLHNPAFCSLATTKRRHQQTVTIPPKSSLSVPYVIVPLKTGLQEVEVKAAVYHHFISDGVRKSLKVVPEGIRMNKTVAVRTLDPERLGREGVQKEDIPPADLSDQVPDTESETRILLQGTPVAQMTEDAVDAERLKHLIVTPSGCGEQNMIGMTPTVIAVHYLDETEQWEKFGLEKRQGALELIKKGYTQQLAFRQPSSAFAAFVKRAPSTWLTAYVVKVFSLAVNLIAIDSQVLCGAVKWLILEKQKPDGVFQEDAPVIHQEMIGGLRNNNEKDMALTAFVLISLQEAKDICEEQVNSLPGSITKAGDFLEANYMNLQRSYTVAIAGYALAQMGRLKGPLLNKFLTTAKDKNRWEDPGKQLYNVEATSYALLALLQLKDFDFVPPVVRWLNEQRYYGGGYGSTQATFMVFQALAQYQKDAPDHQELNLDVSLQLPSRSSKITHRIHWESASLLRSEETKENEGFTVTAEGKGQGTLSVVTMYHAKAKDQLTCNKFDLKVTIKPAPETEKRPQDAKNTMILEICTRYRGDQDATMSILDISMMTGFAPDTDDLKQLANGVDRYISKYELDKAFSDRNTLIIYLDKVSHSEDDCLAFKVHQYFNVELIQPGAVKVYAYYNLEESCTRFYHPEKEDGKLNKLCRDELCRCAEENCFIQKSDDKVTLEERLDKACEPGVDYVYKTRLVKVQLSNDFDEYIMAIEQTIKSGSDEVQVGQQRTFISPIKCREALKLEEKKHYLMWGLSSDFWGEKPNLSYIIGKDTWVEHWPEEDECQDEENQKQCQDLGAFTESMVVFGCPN

recombinant SARS-CoV-2 ORF8 protein, His-tagged (from UniProt P0DTC8 18-121) (natural protein)
IC50 of inhibition of normal human serum-induced hemolysis of rabbit erythrocytes, ORF8 39 nM to 5000 nM: 2.3 µM
